Measured values taken from PMC7573392, “Monitoring Allosteric Interactions with CXCR4 Using NanoBiT Conjugated Nanobodies” (Cell Chemical Biology, 2020).
Marks after values point to notes of the source that are not given here.

T1: LgBiT-tagged human CXCR4 receptor ( | human, UniProt P61073 2-352, CXCR4 portion only (initiator Met removed (so in the source)); this part carries VUN400, CXCL12, AMD3100 and IT1t binding. Left out: the 5-HT3A signal sequence (presumed cleaved), the N-terminal LgBiT report)
T1 chain: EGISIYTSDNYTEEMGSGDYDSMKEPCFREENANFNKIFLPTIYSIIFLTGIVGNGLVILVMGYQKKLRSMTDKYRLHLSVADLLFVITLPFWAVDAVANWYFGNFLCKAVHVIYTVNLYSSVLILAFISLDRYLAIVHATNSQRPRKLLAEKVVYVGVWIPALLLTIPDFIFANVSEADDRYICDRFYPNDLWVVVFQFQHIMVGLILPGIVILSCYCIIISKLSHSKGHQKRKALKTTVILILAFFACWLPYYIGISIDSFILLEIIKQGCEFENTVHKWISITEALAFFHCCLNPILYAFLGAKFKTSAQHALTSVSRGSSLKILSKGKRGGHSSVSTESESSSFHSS

B1: purified HiBiT-HaloTag fusion protein (peptide)
chain: VSGWRLFKKIS
notes: Fusion protein of circa 34 kDa; also called HiBiT-HaloTag control protein; source: bought: Promega (Cat# N3010)

Assays:
LgBiT-CXCR4 [1] = molecular target: T2, LgBiT-CXCR4 (Homo sapiens, UniProt P61073); test: NanoBiT saturation binding (complemented luminescence) in HEK293 cells stably expressing LgBiT-CXCR4; settings: for prevention of VUN400-HiBiT binding to LgBiT-CXCR4: fixed concentration: 100 nM CXCL12, 10 μM AMD3100 or 10 μM IT1t (Figure 3E)
T2 construct: GSSG linker and TEV recognition site (EDLYFQS), between LgBiT and CXCR4 (N); expressed in transfected cells; whole cells in A1-A4, isolated membranes in A9/A10
Protocol: Saturation binding with VUN400-HiBiT was performed on HEK 293 cells stably expressing the LgBiT-CXCR4 receptor. Cells were plated at 30,000 cells/well in white 96-well plates previously coated with poly-D-lysine (10 μg/ml in PBS) in 100 μl complete media (DMEM with 10% FCS). After 24 hours, the media was removed and replaced with 100 μl HBSS containing VUN400-HiBiT within the range of 4-500 nM. Where used, CXCL12, AMD3100 or IT1t were also added at this point. The plate was incubated for two hours at 37°C. Furimazine (1:400 final concentration) was added to each well and the plate was incubated for a further 15 minutes at 37°C. Luminescence was measured using the PHERAstar FS plate reader.
Saturation binding curves of VUN400-HiBiT were fitted using the following equation: Specificbinding=Bmax×[B]/[B]+KD where Bmax is the maximal specific binding, [B] is the concentration of VUN400-HiBiT, and KD is the equilibrium dissociation constant (nM).

LgBiT-CXCR4 [2] = molecular target: T2, LgBiT-CXCR4; test: NanoBiT nanobody displacement binding assay, whole HEK293 cells expressing LgBiT-CXCR4
Protocol: (§1) Full nanobody displacement assays were performed in HEK293 cells stably expressing either the LgBiT-CXCR4 or SNAP-CXCR4 constructs. Cells (30,000 per well) were plated in white 96-well poly-D-lysine coated plates as described above. After 24 hours, media was removed and replaced with 100 μl HBSS. Increasing concentrations of displacing ligands were added to the cells. […] The cells were incubated at 37°C for 2 and a half hours in total. […] Furimazine (1:400 final concentration) was added to each well and the plate was incubated for a further 15 minutes at 37°C. Luminescence was measured using the PHERAstar FS plate reader.

SNAP-CXCR4 [3] = molecular target: T3, SNAP-CXCR4 (Homo sapiens, UniProt P61073); settings: 10 μM AMD3100 (Figure S1)
T3 sequence (P61073 whole entry): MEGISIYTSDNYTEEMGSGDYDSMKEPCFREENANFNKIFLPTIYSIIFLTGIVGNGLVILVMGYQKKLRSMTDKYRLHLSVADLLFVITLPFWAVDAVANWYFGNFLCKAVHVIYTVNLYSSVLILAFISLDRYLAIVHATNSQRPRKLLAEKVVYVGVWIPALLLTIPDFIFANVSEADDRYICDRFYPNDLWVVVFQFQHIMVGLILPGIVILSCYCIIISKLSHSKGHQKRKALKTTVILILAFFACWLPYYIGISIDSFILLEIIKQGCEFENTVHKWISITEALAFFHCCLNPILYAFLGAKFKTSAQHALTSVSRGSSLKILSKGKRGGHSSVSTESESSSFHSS
Excerpt: Data are mean ± SEM from triplicate determinations in a single experiment. This single
Data are mean ± SEM from triplicate determinations in a single experiment.

SNAP-CXCR4 [4] = molecular target: T3, SNAP-CXCR4; test: NanoBiT nanobody displacement binding assay, whole HEK293 cells expressing SNAP-CXCR4 (exogenous LgBiT added after washing); design: expressed in transfected cells; host or cells: HEK293G cells stably expressing SNAP-CXCR4 (gift of Dr. J. Goulding, University of Nottingham)
Protocol: as §1

[5] = system: T4, endogenous, untagged CXCR4; test: Nanobody displacement assay in Jurkat T cells (endogenous CXCR4); format: binding, human; settings: 100 nM VUN400-HiBiT with competing ligand 2 h, washed, exogenous LgBiT added, p < 0.05
T4 construct: these cells express high levels of CXCR4 endogenously; host or cells: Jurkat T cells (clone E6-1)
Protocol: Nanobody displacement assays in T-cells were performed by seeding 100,000 Jurkat cells per well into V-bottom 96-well plates in 100μl warm HBSS. Cells were treated with 100 nM VUN400-HiBiT and competing ligands simultaneously and incubated for 2 hours at 37°C. The cells were pelleted by centrifugation at 300g for 5 minutes and the supernatant removed and replaced with 200 μl fresh HBSS. Cells were resuspended via shaking at 1000 r.p.m on an orbital plate shaker for 2 minutes. This wash step was repeated two more times to remove unbound VUN400-HiBiT. The cells were treated with 20 nM exogenous LgBiT and furimazine (1:400 final concentration) and transferred to white 96-well plates and luminescence read using a PHERAstar FS plate reader.

SNAP-CXCR4 [6] = molecular target: T3, SNAP-CXCR4; test: TR-FRET saturation ligand binding at SNAP-CXCR4; design: expressed in transfected cells; host or cells: HEK293G cells stably expressing SNAP-CXCR4 (gift of Dr. J. Goulding, University of Nottingham)
Excerpt: Saturation binding of VUN400-HiBiT a t th e
experiment is representative of five separate experiments.
Supplementary Figure 2 (related to Figure 5).
This single experiment is representative of five separate experiments.

LgBiT-CXCR4 [7] = molecular target: T2, LgBiT-CXCR4; test: CXCL12-AF647 dissociation kinetics (NanoBRET) at complemented LgBiT-CXCR4; format: binding
Protocol: Nanobody and CXCL12-AF647 dissociation kinetic measurements were performed in membranes isolated from HEK293 LgBiT-CXCR4 cells. Briefly, 10 μg LgBiT-CXCR4 membranes were plated in white 96-well plates containing furimazine (1:400 final concentration) and incubated at 37°C for 10 minutes. […] Increasing concentrations of VUN400-HiBiT or CXCL12-AF647 were added to the wells and luminescence (VUN400-HiBiT) or the BRET ratio (CXCL12-AF647) were measured. […] The BRET ratio was calculated as described above. Both the BRET ratio and luminescence were measured using the PHERAstar FS plate reader.
For nanobody dissociation experiments were fitted to the following mono-exponential decay equation: Y=(Y0−NS)^−k.t+NS where Y0 is the nanobody binding at the time of ligand addition (t0), NS is the nanobody bound at infinite time, and k is the rate constant of nanobody dissociation.

LgBiT-CXCR4 [8] = molecular target: T2, LgBiT-CXCR4; test: NanoBRET saturation binding at complemented LgBiT-CXCR4 in HEK293 cells; settings: non-specific binding defined with 10 μM AMD3100, 2 h 37°C
Protocol: Saturation NanoBRET binding assays were performed on HEK 293 cells stably expressing the LgBiT-CXCR4 receptor. Cells were plated at 30,000 cells/well in white 96-well plates (Greiner) previously coated with 50 μl poly-D-lysine (mol wt: 70-150 kDa; 10 μg/ml in PBS) in 100 μl complete media (DMEM with 10% FCS). After 24 hours, the media was removed from each well and replaced with 100 μl HEPES-buffered saline solution (HBSS; 145 mM NaCl, 5 mM KCl, 1.3 mM CaCl2, 1 mM MgSO4, 10 mM HEPES, 2 mM sodium pyruvate, 1.5 mM NaHCO3, 10 mM D-glucose, pH 7.45) containing 10 nM purified HiBiT-HaloTag (Promega) and incubated at 37°C for 30 minutes. This was sufficient time for HiBiT-LgBiT complementation to occur, forming the fully complemented NanoLuc enzyme. The HBSS was then aspirated and the cells washed three times with 100 μl HBSS. […] Cells were incubated for 2 hours at 37°C in the dark. The NanoLuc substrate furimazine (Promega) was added to each well (1:400 final concentration) and allowed to equilibrate for 5 minutes at 37°C prior to reading. Luminescence signals were measured at two wavelengths using a PHERAstar FS plate reader (BMG Labtech, UK) at room temperature. Filtered light was simultaneously measured using 460 nm (80-nm bandpass) and >610 nm longpass filters. The resulting BRET ratio was calculated by dividing the >610 nm emission by the 460 nm emission.

LgBiT-CXCR4 [9] = molecular target: T2, LgBiT-CXCR4; test: NanoBiT association kinetic measurements (complemented luminescence) in HEK293 cells stably expressing LgBiT-CXCR4; format: binding; settings: KD = koff/kon at LgBiT-CXCR4
Protocol: Cells (30,000 per well) were plated in white 96-well poly-D-lysine coated plates (10 μg/ml in PBS) as described above. After 24 hours, media was removed and replaced with 50 μl HBSS containing furimazine (1:400 final concentration) and incubated at 37°C for 10 minutes and basal luminescence was measured. […] The resulting luminescence was measured over 60 minutes at 37°C. Luminescence was measured using the PHERAstar FS plate reader.
Nanobody binding association kinetic data were fitted to the following mono-exponential association function: Y=Ymax(1−e^−kobs.t) where Ymax is the specific binding at infinite time, t is the time of incubation, and kobs is the rate constant for the observed rate of association.
kon and koff values were determined by simultaneously fitting nanobody binding association kinetic curves obtained at different nanobody concentrations (L) to the equation above with the relationship between kobs and the two kinetic binding rate constants kon and koff given by: kon=kobs−koff/L
Kinetically determined nanobody KD values were determined with the following equation: KD=koff/kon

[10] = molecular target: T1, LgBiT-tagged human CXCR4 receptor; test: split reporter (BiFC, NanoBiT); association kinetics; increasing concentrations of HiBiT added to HEK293 cells stably expressing LgBiT-CXCR4 in HBSS with furimazine; luminescence over 60 minutes at 37°C; global fit of kon and koff, KD = koff/kon; settings: one partner purified
[11] = 20 nM VUN400-HiBiT, (a) pre-incubation with VUN400-HiBiT
[12] = 20 nM VUN400-HiBiT, (b) simultaneous addition
[13] = 20 nM VUN400-HiBiT, (c) pre-incubation with ligands
[14] = 20 nM VUN400-HiBiT, (b) simultaneous addition, 2 h 37°C
[15] = (c) pre-incubation with ligands 2 h 37°C, then 20 nM VUN400-HiBiT 30 min
[16] = inhibition of 20 nM VUN400-HiBiT binding, (a) pre-incubation with VUN400-HiBiT 30 min, then ligand 2 h 37°C

Row | Molecule | prevention of VUN400-HiBiT binding to LgBiT-CXCR4 (LgBiT-CXCR4 [1]) | Maximum Inhibition (% 10 μM AMD3100) (LgBiT-CXCR4 [2]; [11]) | Maximum Inhibition (% 10 μM AMD3100) (LgBiT-CXCR4 [2]; [12]) | Maximum Inhibition (% 10 μM AMD3100) (LgBiT-CXCR4 [2]; [13]) | Maximum Inhibition (% 10 μM AMD3100) (SNAP-CXCR4 [4]; [11]) | Maximum Inhibition (% 10 μM AMD3100) (SNAP-CXCR4 [4]; [12]) | Maximum Inhibition (% 10 μM AMD3100) (SNAP-CXCR4 [4]; [13]) | displacement of VUN400-HiBiT from endogenous CXCR4 [5] | other results
1 | c1cc(CN2CCCNCCNCCCNCC2)ccc1CN1CCCNCCNCCCNCC1 [AMD3100] | prevented | 100 % 10 μM AMD3100 | 100 % 10 μM AMD3100 | 100 % 10 μM AMD3100 | 100 % 10 μM AMD3100 | 100 % 10 μM AMD3100 | 100 % 10 μM AMD3100 | displaced | effect on VUN400-HiBiT bioluminescence signal at SNAP-CXCR4 (SNAP-CXCR4 [3]): able to reduce the bioluminescence signals
2 | CC1(C)CN2C(CSC(=NC3CCCCC3)NC3CCCCC3)=CSC2=N1.Cl.Cl [IT1t, N,N’-Dicyclohexylcarbamimidothioic acid (5,6-dihydro-6,6-dimethylimidazo[2,1-b]thiazol-3-yl)methyl ester dihydrochloride] | prevented | 104.4 ± 4.5 % 10 μM AMD3100 | 96.5 ± 0.4 % 10 μM AMD3100 | 79.9 ± 3.1 ^c % 10 μM AMD3100 | 107.1 ± 4.8 % 10 μM AMD3100 | 106.8 ± 11.5 % 10 μM AMD3100 | 102.3 ± 3.6 % 10 μM AMD3100 | displaced | 
3 | CXCL12-AF647: fluorescently labeled CXCL12, fluorescent orthosteric agonist (Almac) |  |  |  |  |  |  |  |  | pKD (SNAP-CXCR4 [6]): 7.99 ± 0.10; koff (LgBiT-CXCR4 [7]; 10 nM CXCL12-AF647, after addition of 1 μM CXCL12): 0.00533 ± 0.0005 s⁻¹; koff (LgBiT-CXCR4 [7]; 10 nM CXCL12-AF647, after addition of 10 μM AMD3100): 0.007 ± 0.00067 s⁻¹; pKD (LgBiT-CXCR4 [8]): 7.80 ± 0.08
4 | CXCL12: chemokine ligand, endogenous orthosteric agonist of CXCR4 (PeproTech) | prevented | 98.2 ± 0.2 % 10 μM AMD3100 | 98.8 ± 0.3 % 10 μM AMD3100 | 111.5 ± 3.1 ^c % 10 μM AMD3100 | 93.3 ± 8.7 % 10 μM AMD3100 | 92.8 ± 6.7 % 10 μM AMD3100 | 67.7 ± 11.6 ^c % 10 μM AMD3100 | displaced | pIC50 (Mean ± SEM) (LgBiT-CXCR4 [2]; [14]): 8.74 ± 0.13; pIC50 (Mean ± SEM) (LgBiT-CXCR4 [2]; [15]): 9.03 ± 0.02; pIC50 (Mean ± SEM) (LgBiT-CXCR4 [2]; [16]): 8.82 ± 0.12; pIC50 (Mean ± SEM) (SNAP-CXCR4 [4]; [14]): 8.05 ± 0.21 ^a; pIC50 (Mean ± SEM) (SNAP-CXCR4 [4]; [15]): 8.05 ± 0.41; pIC50 (Mean ± SEM) (SNAP-CXCR4 [4]; [16]): 8.14 ± 0.28 ^a
5 | HiBiT: purified HiBiT-HaloTag fusion protein, circa 34 kDa (Promega) |  |  |  |  |  |  |  |  | saturation binding (in words) (LgBiT-CXCR4 [1]; increasing concentrations added to HEK LgBiT-CXCR4 cells): linear, indicative of low affinity; pKD (determined from kinetic rate constants) (LgBiT-CXCR4 [9]): 6.4
6 | B1 |  |  |  |  |  |  |  |  | koff [10]: 0.00367 s⁻¹; kon [10]: 10000 M⁻¹ s⁻¹; pKD [10]: 6.43 ± 0.13
